# From patent US8822171
# B1: casein kinase 1 (CK1) (protein)
# chain: MELRVGNRYRLGRKIGSGSFGDIYLGTDIAAGEEVAIKLECVKTKHPQLHIESKIYKMMQGGVGIPTIRWCGAEGDYNVMVMELLGPSLEDLFNFCSRKFSLKTVLLLADQMISRIEYIHSKNFIHRDVKPDNFLMGLGKKGNLVYIIDFGLAKKYRDARTHQHIPYRENKNLTGTARYASINTHLGIEQSRRDDLESLGYVLMYFNLGSLPWQGLKAATKRQKYERISEKKMSTPIEVLCKGYPSEFATYLNFCRSLRFDDKPDYSYLRQLFRNLFHRQGFSYDYVFDWNMLKFGASRAADDAERERRDREERLRH
# Target: recombinant human tau, largest isoform (2N4R)
protein,measurement,value
B1,"New sites identified in recombinant tau (phosphorylated residues, numbered on 441-residue human tau)","(46/50), 113, 131, 149, 169, 184, 208, (210, 212), 214, 237, 238, 241, 258, 262, 263, 285, 289, 305, 341, 352, 356, 361, 373, 386, (412/413/414/416, 2 sites), 416, 433, 435"
same,"in vitro phosphorylation of recombinant tau, sites identified by LC/MS/MS",CK1 found 28 new sites making a total of 30 sites in all.
